Positions of bridges follow the written chain, without caps; N, C: chain ends. Non-standard residues stand in square brackets, D forms with d. No end group written: not given here. *: point of attachment. Biotin = O=C1N[C@H]2[C@H](CS[C@H]2CCCCC(=O)*)N1
Tests used:
[1] = target: T1, Duffy Antigen Receptor for Chemokines (DARC) (human) (UniProt Q16570); test: Table 18, DARC binding (µM); >100 = ED50 not determined
T1 sequence (looked up): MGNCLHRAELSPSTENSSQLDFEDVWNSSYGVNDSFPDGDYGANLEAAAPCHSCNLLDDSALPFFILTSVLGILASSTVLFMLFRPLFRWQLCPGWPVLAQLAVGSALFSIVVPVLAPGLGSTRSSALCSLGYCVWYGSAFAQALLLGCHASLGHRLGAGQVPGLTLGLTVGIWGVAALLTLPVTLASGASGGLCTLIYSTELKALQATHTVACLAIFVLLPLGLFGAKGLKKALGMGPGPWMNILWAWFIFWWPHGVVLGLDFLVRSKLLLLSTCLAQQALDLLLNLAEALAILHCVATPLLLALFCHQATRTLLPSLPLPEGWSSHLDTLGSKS

[2] = target: T1, Duffy Antigen Receptor for Chemokines (DARC) (human); test: estimated ka for binding to red blood cells divided by average inhibitory ED50 in THP-1 migration
[3] = target: chemokine receptors
[4] = target: chemokine receptors on THP-1 cells; test: binding to chemokine receptors on THP-1 cells; given as association constant
[5] = target: chemokine receptors on THP-1 cells; test: estimated ka for binding to THP-1 cells (column 'average ED50', peptide 2 family footnote)
[6] = target: chemokine receptors on THP-1 cells; test: binding to THP-1 cells; printed as association constant in concentration units
[7] = target: chemokine receptors on THP-1 cells; test: binding to chemokine receptors on THP-1 cells; printed as Ka in concentration units
[8] = target: chemokine receptors on the surface of Jurkat cells; test: binding to chemokine receptors on the surface of Jurkat cells; printed as Ka in concentration units
[9] = target: T2, Duffy Antigen Receptor for Chemokines (DARC) (human), Q16570; test: Duffy binding against the LFL peptide
T2 chain: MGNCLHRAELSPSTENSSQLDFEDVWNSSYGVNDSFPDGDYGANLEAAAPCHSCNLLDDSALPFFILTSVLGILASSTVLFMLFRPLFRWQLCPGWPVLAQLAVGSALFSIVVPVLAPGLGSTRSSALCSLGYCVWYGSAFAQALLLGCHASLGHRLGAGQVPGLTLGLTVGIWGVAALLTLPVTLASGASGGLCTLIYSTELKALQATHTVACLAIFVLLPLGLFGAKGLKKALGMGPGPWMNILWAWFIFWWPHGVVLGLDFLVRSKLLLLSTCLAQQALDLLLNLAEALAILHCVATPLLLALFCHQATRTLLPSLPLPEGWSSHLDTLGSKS

[10] = target: CCR5 (human), P51681; test: not stated; given as affinity constant
[11] = target: T3, CXCR4 (human), P61073; test: not stated; given as affinity constant
T3 chain: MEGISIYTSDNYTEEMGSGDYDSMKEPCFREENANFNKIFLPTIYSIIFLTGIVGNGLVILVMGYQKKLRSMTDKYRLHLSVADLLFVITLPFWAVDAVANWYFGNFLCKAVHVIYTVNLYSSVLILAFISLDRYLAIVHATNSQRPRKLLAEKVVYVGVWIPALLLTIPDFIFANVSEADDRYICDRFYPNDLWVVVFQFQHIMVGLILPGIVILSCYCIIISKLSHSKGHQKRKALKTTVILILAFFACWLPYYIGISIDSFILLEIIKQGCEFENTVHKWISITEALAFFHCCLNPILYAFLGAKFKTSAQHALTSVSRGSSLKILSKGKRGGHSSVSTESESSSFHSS

[12] = target: T2, Duffy Antigen Receptor for Chemokines …; test: Duffy binding; kind of constant not named
[13] = target: T2, Duffy Antigen Receptor for Chemokines …; test: Table 18, DARC binding (µM); method not restated
[14] = target: T1, Duffy Antigen Receptor for Chemokines (DARC) (human); test: DARC binding; method not restated
[15] = target: T1, Duffy Antigen Receptor for Chemokines (DARC) (human); test: Table 18, DARC binding (µM); method not restated
[16] = target: T1, Duffy Antigen Receptor for Chemokines (DARC) (human); test: ka for binding to red blood cells divided by ka for binding to THP-1 cells
[17] = target: chemokine receptors on THP-1 cells; test: comparison of DARC binding and THP-1 cells
[18] = target: chemokine receptors on THP-1 cells; test: biotinylated peptide 2 on THP-1 cells, streptavidin-peroxidase, with and without 100 µM peptide 3; given as affinity constant

Chain of CCR5 (human), P51681 (P51681 whole entry): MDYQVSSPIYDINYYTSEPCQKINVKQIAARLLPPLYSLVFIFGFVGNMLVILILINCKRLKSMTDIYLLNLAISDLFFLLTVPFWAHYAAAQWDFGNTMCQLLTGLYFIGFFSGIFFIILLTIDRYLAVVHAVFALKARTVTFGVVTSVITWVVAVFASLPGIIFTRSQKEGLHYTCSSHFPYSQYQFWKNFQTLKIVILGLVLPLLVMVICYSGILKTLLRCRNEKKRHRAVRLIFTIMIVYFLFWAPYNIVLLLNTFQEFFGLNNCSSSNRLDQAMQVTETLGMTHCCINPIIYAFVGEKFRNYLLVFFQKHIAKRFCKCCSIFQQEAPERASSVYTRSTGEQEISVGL

Binder: [dC][dV][dA][dE][dK][dP][dS][dK][dS][dS][dT][dI][dR][dR][dY][dS][dC] (cysteine pairing not given here) [LRD Cys0Ser10Cys16 derivative of peptide 2(1-15)[MCP-1]]
- DARC binding [1]: > 100 µM

Binder: KQKWVQ [Peptide 3(7-12)[MCP-1]]
- Duffy selectivity [2]: 2.94

Binder: EICADPSEEWVQ (not fully specified) [Ser7Glu8Glu9peptide 3(1-12)[MCP-1]]
- Duffy selectivity [2]: 0.59

Binder: EICADPSQKWVQ [Ser7peptide 3(1-12)[MCP-1]]
- Duffy selectivity [2]: 2

Binder: DYFETSSQCSKPGV [Pep2(1-14)[MIP1α]]
- gp120 ED-50 [3]: > 100 µM
- Kd [4]: 100 to 900 nM
- Kd [5]: 1000 to 10000 nM

Binder: EICADPKQKWVQ [Peptide 3(1-12)[MCP-1]]
- Kd [6]: 10000 nM
- Duffy selectivity [2]: 1

Binder: SYRRITSSKCPKEAV [Peptide 2(1-15)[MCP-1]]
- gp120 ED-50 [3]: 0.4 µM
- Kd [7]: 300 nM
- Kd [5]: 2000 nM
- Kd [8]: 250 nM

Binder: VAEKPCKSSTIRRYS (not fully specified (some residues)) [LRD peptide 2(1-15)[MCP-1]]
- gp120 ED-50 [3]: 3 µM
- fold decrease in Duffy binding against LFL peptide 2 [9]: 100 fold
- Kd [10]: < 100 nM
- Kd [11]: < 100 nM
- Kd [12]: 25000 nM
- DARC binding [13]: 18 µM

Binder: CPKEAV
- DARC binding [1]: > 100 µM

Binder: SYRRITSSKSPKEAV [Ser10 variant of peptide 2(1-15)[MCP-1]]
- DARC binding [14]: 20 to 100 µM

Binder: CADPKQKWVQ [Peptide 3(3-12)[MCP-1]]
- Duffy selectivity [2]: 1.21

Binder: EICADP [Peptide 3(1-6)[MCP-1]]
- Duffy selectivity [2]: 5.32

Binder: HLKILNTPNCALQIV [Pep2(1-15)[SDF1]]
- gp120 ED-50 [3]: 35 µM
- DARC binding [15]: 19 µM
- Duffy selectivity [16]: < 1
- Kd [5]: 1000 to 10000 nM

Binder: [dC][dQ][dV][dW][dK][dQ][dK][dP][dD][dA][dC] (disulfide 1-11; not fully specified) [CRD-Cys13pep3[3-12]]
- Duffy selectivity [2]: 8.82

Binder: EICLDPKQKWIQ [Leu4Ile11peptide 3(1-12)[MCP-1]]
- selectivity for receptors on THP-1 cells over DARC [17]: > 20 fold

Binder: ELRVIESGPHCANTEI [Pep2(1-16)[IL8]]
- Kd [5]: 1000 to 10000 nM

Binder: Biotin-SYRRITSSKCPKEAV [N-terminal biotin-labeled derivative of peptide 2(1-15)[MCP-1]]
- Kd [18]: 250000 nM

— patent publication EP2386565A2, “Compounds and methods to inhibit or augment an inflammatory response” (Cambridge Enterprise Ltd., priority 1999, dated 2000)
